Test results as given in patent EP2078752A2 (LUDWIG INSTITUTE FOR CANCER RESEARCH, dated 2009).

Key:
Experiment in all cases: affinity cross-linking of 125I-activin A then immunoprecipitation, COS-1 cells co-transfected with ActR-II
mouse ALK-6 (clone ME-6) = target: T1, mouse ALK-6 (clone ME-6) (mouse, UniProt P36898 14-502)
T1 construct: Expressed from cDNA in COS-1 cells; also called mALK-6; BMPR-IB

[1] = target: T2, human ALK-5 (clone EMBLA), TGF-β type I receptor (human, UniProt P36897 25-503)
T2 construct: Expressed from cDNA in COS-1 cells and PAE cells (PAE/TβR-I), or endogenous in human cell lines and HUVEC; also called hALK-5; TβR-I
T2 sequence: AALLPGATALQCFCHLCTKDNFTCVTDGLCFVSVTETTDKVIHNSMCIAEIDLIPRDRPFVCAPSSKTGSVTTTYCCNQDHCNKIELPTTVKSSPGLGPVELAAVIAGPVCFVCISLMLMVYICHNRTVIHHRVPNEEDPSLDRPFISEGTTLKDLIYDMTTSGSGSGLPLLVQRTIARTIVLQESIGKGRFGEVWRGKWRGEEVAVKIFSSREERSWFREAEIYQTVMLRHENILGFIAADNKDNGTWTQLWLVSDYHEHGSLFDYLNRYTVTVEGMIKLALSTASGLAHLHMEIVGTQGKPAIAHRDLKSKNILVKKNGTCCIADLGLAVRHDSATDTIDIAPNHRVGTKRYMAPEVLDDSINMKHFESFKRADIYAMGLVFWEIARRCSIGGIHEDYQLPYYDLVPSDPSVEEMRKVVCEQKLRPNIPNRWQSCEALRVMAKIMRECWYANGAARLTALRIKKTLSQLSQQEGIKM

human ALK-1 (clone HP57) = target: T3, human ALK-1 (clone HP57) (human, UniProt P37023 22-503)
T3 construct: Expressed from cDNA in COS-1 cells, or endogenous in HUVEC; also called hALK-1

Measured: binding result

T3 sequence (P37023 22-503 S172T limits assumed): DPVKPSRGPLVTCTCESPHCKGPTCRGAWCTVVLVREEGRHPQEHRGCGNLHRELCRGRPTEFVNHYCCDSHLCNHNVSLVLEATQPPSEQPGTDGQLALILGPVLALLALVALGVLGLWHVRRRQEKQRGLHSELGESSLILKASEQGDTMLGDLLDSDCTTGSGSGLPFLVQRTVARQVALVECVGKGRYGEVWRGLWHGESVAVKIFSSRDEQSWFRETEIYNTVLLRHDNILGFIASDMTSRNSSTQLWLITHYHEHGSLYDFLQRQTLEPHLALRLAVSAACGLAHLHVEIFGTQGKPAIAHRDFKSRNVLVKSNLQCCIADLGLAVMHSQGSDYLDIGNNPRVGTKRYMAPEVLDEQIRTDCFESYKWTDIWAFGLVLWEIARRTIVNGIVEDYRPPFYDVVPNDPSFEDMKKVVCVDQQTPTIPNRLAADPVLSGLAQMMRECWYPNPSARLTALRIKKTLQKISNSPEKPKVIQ
T1 sequence (P36898 14-502 limits assumed): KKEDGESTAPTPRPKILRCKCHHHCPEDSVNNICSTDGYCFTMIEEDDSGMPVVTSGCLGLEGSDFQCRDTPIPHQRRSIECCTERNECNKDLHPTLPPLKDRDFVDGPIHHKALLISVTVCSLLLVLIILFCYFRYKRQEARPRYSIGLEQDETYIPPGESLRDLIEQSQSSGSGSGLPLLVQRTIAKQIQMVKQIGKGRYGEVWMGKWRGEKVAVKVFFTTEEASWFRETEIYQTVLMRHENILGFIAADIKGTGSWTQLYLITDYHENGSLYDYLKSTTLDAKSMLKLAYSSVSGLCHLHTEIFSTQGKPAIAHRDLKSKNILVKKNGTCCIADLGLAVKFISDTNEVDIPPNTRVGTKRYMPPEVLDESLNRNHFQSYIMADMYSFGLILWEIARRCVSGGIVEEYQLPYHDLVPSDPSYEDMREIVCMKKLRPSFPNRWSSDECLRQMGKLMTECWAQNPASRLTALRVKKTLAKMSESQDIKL

B1: recombinant human activin A, iodinated (^125I-activin A) (ligand, UniProt P08476 311-426, looked up)
chain: GLECDGKVNICCKKQFFVSFKDIGWNDWIIAPSGYHANYCEGECPSHIAGTSGSSLSFHSTVINHYRMRGHSPFANLKSCCVPTKLRPMSMLYYDDGQNIIKKDIQNMIVEECGCS
modifications: 125I-iodinated by the chloramine T method
notes: Recombinant ligand
binds: all assays above
